Test results published in publication PMC2018633 (Nucleic Acids Research, 2007).
Numbering of substitutions follows the chain as printed.

How the values were obtained:
aCBF5 K53A variant = biological target: T1, aCBF5 K53A variant (Pyrococcus abyssi, UniProt Q9V1A5 1-334, K53A); assay: native gel or EMSA
T1 sequence (looked up): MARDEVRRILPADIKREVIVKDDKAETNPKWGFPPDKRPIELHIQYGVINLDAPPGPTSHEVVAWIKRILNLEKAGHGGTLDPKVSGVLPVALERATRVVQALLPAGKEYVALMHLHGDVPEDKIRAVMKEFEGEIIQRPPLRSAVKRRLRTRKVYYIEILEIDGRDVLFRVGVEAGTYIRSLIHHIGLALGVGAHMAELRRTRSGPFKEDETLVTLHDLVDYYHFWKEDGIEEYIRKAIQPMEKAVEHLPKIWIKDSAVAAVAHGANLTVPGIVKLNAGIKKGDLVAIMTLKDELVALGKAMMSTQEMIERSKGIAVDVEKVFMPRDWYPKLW

aCBF5 R202A variant = biological target: T2, aCBF5 R202A variant (Pyrococcus abyssi, UniProt Q9V1A5 1-334, R202A); assay: native gel or EMSA
T2 sequence (looked up): T1 sequence (looked up) with A53K, R202A

aCBF5 H77A variant = biological target: T3, aCBF5 H77A variant (Pyrococcus abyssi, UniProt Q9V1A5 1-334, H77A); assay: native gel or EMSA
T3 sequence (looked up): T1 sequence (looked up) with A53K, H77A

P. abyssi aCBF5 protein = biological target: T4, P. abyssi aCBF5 protein (Pyrococcus abyssi, UniProt Q9V1A5 1-334); assay: cell-based or functional assay
T4 sequence (looked up): T1 sequence (looked up) with A53K

B1: P. abyssi aNOP10 protein (natural protein, Pyrococcus abyssi, UniProt Q9V0E3 1-60, looked up)
chain: MRFRIRKCPKCGRYTLKETCPVCGEKTKVAHPPRFSPEDPYGEYRRRLKRELLGIGRKEK
B1: binds (aCBF5 K53A variant); binds (aCBF5 R202A variant); binds (aCBF5 H77A variant). The “level of aCBF5-tRNAAsp complexes by EMSA, with against without aNOP10” value (P. abyssi aCBF5 protein) was ~4 fold.
